Source: US7700101B2, “Reagents and method for modulating Dkk-mediated interactions” (Wyeth, priority 2001, dated 2010)

Tests used:
[1] = tested on: Zmax1/LRP5 ligand binding domain (LBD) baits LBD1 and LBD4; test: Yeast two hybrid minimum interaction domain mapping of Dkk-1 with LRP5; conditions: FIG. 6
From the text: Further analysis of yeast two hybrid (Y2H) interacting proteins includes the dissection of protein motifs responsible for the interaction. Sequence alignment of multiple clones identified in the Y2H screens can help identify the smallest common region responsible for the interaction. In the absence of appropriate clones, deletion mapping of interacting domains is necessary.
PCR primers containing restriction sites suitable for cloning are designed to cover multiple sub-domains of the protein of interest (bait or prey). The methods involved in cloning, sequencing, yeast transformation, mating, and scoring of interactions are readily performed by one of ordinary skill in the art of molecular biology and genetic engineering.
The primers, which are presented in 5′ to 3′ orientation, were as follows: […]
PCR was performed using PfuTurbo® polymerase (Stratagene). The PCR products were gel purified, digested with SaflI/NotI and ligated to pPC86 (Gibco/BRL) which had been linearized with SalI/NotI.
These clones were transformed into yeast and mated with each of three yeast strains containing pDBleu (Gibco/BRL), pDBleuLBD1, and pDBleuLBD4. Positive interactions were detected by growth of the hybrids on appropriate selective media.

[2] = tested on: Wnt pathway; test: Xenopus embryo screening for duplicated body axis; assay type: in vivo; conditions: RNA injected into ventral blastomere; LRP5 500 pg, Wnt5a 20 pg
From the text: Modification of the Wnt signaling pathway can be visualized by examining the embryos for a dorsalization phenotype (duplicated body axis) after RNA injection into the ventral blastomere at the 4- or 8-cell stage. On the molecular level, phenotypes can be analyzed by looking for expression of various marker genes in stage 10.5 embryos. Such markers would include general endoderm, mesoderm, and ectoderm markers as well as a variety of tissue-specific transcripts.
mRNA for microinjection into Xenopus embryos is generated by in vitro transcription using the CDNA constructs in the pCS2^+ vector described above as template. RNA is synthesized using the Ambion mMessage mMachine high yield capped RNA transcription kit (Cat. #1340) following the manufacturer's specifications for the Sp6 polymerase reactions. RNA products were brought up to a final volume of 50 μl in sterile, glass-distilled water and purified over Quick Spin-Columns for Radiolabelled RNA Purification G50-Sephadex (Roche, Cat. #1274015) following the manufacturer's specifications. The resulting eluate was finally extracted with phenol:chloroform:isoamyl alcohol and isopropanol precipitated using standard protocols (Sambrook et al., 1989). Final RNA volumes were approximately 50 μl. RNA concentration was determined by absorbance values at 260 nm and 280 nm. […]

Chain of Zmax1/LRP5 ligand binding domain (LBD) baits LBD1 and LBD4 (as listed by the source): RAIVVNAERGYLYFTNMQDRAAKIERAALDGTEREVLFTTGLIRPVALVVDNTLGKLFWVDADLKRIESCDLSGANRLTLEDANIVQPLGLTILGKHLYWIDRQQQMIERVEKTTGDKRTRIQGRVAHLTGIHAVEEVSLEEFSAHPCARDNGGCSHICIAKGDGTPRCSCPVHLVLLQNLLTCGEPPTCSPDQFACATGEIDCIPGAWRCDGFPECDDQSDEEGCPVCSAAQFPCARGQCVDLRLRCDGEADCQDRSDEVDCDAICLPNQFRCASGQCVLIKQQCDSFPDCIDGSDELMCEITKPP

growth of diploids on selective media (interaction with LRP5 LBD baits) [1] | Molecule | induction of axis duplication [2]
no growth was observed | D11: Dkk-1 fragment clone F3/R2: Val 139-Cys245 (protein, left off: large carriers) VSSDQNHFRGEIEETITESFGNDHSTLDGYSRRTTLSSKMYHTKGQEGSVCLRSSDCASGLCCARHFWSKICKPVLKEGQVCTKHRRKGSHGLEIFQRCYCGEGLSC | –
– | Wnt5a: murine Wnt5a cDNA clone, RNA injected (protein, UniProt P22725 62-380, looked up) Protein Wnt-5a: IIGAQPLCSQLAGLSQGQKKLCHLYQDHMQYIGEGAKTGIKECQYQFRHRRWNCSTVDNTSVFGRVMQIGSRETAFTYAVSAAGVVNAMSRACREGELSTCGCSRAARPKDLPRDWLWGGCGDNIDYGYRFAKEFVDARERERIHAKGSYESARILMNLHNNEAGRRTVYNLADVACKCHGVSGSCSLKTCWLQLADFRKVGDALKEKYDSAAAMRLNSRGKLVQVNSRFNSPTTQDLVYIDPSPDYCVRNESTGSLGTQGRLCNKTSEGMDGCELMCCGRGYDQFKTVQTERCHCKFHWCCYVKCKKCTEIVDQFVCK | could not induce axis duplication
